Experimental data as given in patent publication US20240287190A1 (THERANOTICS, published 2024).
Where a chain is given by its changes, count along the chain named. Where two headings read alike, the source gives them in different places.

B1: #7 (mono) B7-H3 mono antibody free of TGFβ binding portion (antibody, human IgG1, N297A, V domains shown)
VH: EVQLLESGGGLVQPGGSLRLSCAASGFTFSNFWIGWVRQAPGKGLEWVSWINPPGSITSYADSVKGRFTISRDNSKDTLYLQMNSLRAEDTAVYYCAREVGDVLDYWGQGTLVTVSS
VL: QSVLTQPPSASGTPGQRVTISCTGTSSDIGRYNYVSWYQQLPGTAPKLLIYRNTQRPSGVPDRFSGSKSGTSASLAISGLRSEDEADYYCGTWDSSLNAYVFGGGTKLTVL
B2: #8 (mono) B7-H3 mono antibody free of TGFβ binding portion (antibody, human IgG1, N297A, V domains shown)
VH: EVQLLESGGGLVQPGSSLRLSCAASGFTFSSYWISWVRQAPGKGLEWVSEISPSGNTNYNPSLKSRFTISRDNSKNTLYLQMNSLRAEDTAVYYCAREVGDLLDYWGQGTLVTVSS
VL: QSVLTQPPSASGTPGQRVTISCSGSNIGNNYVSWYQQLPGTAPKLLIYQDSKRPSGVPDRFSGSKSGTSASLAISGLRSEDEADYYCLVWDRSSDHFVFGGGTKLTVL
B3: #5 (mono) B7-H3 mono antibody free of TGFβ binding portion (antibody, human IgG1, N297A, V domains shown)
VH: EVQLLESGGGLVQPGGSLRLSCAASGFTFSTYAMSWVRQAPGKGLEWVSAISGSGGSTLYADSVKGRFTISRDNSKNTLYLQMNSLRAEDTAVYYCARGGSATWAFDLWGQGTLVTVSS
VL: QSVLTQPPSASGTPGQRVTISCSGSSSNIGSNYVYWYQQLPGTAPKLLIYRNNQRPSGVPDRFSGSKSGTSASLAISGLRSEDEADYYCGTWDSSLSGVVFGGGTKLTVL
B4: #6 (mono) B7-H3 mono antibody free of TGFβ binding portion (antibody, human IgG1, N297A, V domains shown)
VH: EVQLLESGGGLVQPGGSLRLSCAASGFTFSTYAISWVRQAPGKGLEWVSSIYYSGYTHYNPSLESRFTISRDNSKNTLYLQMNSLRAEDTAVYYCARGYSGWMDVWGQGTLVTVSS
VL: QSVLTQPPSASGTPGQRVTISCGGNNIGSKSVHWYQQLPGTAPKLLIYDNNKRPSGVPNRFSGSKSGTSASLAISGLRSEDEADYYCAAWDDSLNVPVFGGGTKLTVL
B5: #9 (mono) B7-H3 mono antibody free of TGFβ binding portion (antibody, human IgG1, N297A, V domains shown)
VH: EVQLLESGGGLVQPGGSLRLSCAASGFTFSSYAMNWVRQAPGKGLEWVSTISGSGGQTYYADSVKGRFTISRDNSKNTLYLQMNSLRAEDTAVYYCARWRSIWAFDYWGQGTLVTVSS
VL: B4 VL with G23S, G24D, N59D, A88G, A89T, N95S, V96G

Legend:
[1] = molecular target: T1, recombinant human TGFβ1 protein (R&D Systems, Cat #7754-BH-025/CF) (human, UniProt P01137 279-390); test: bridging ELISA on plate-coated TGFβ1, detected with His-tag human B7-H3; paragraph 158 says the mono antibodies are not bound to TGFβ1
T1 construct: Bought protein

[2] = molecular target: T1, recombinant human TGFβ1 protein (R&D …); test: as above; remark: listed apart in the source

T1 sequence (P01137 279-390 limits assumed): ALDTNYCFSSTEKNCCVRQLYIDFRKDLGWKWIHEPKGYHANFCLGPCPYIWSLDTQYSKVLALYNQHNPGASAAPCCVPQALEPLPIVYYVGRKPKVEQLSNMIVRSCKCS

binding result [1] | binding result [2] | Binder
no binding | – | B1
no binding | – | B2
– | no binding | B3
no binding | – | B4
no binding | – | B5
